Patent publication US20200199241A1

How the values were obtained:
human FcγRIIa(R) (human) = human FcγRIIa(R) (human) (UniProt P12318); assay: SPR (Biacore)
[1] = target: human FcγRIIIa(F) (human) (UniProt P08637); assay: SPR, captured antibody
human FcγRIIa(H) (human) = human FcγRIIa(H) (human) (UniProt P12318); assay: SPR (Biacore)
FcγRIIb (human) [2] = target: FcγRIIb (human) (UniProt P31994); assay: SPR, captured antibody
FcγRIIb (human) [3] = target: FcγRIIb (human) (UniProt P31994); assay: SPR (Biacore)
[4] = target: human FcγRIIIa(F) (human) (UniProt P08637); assay: SPR (Biacore)

Sequence of human FcγRIIa(H) (human) (P12318 other isoform, or with tags, fused parts or gaps limits assumed): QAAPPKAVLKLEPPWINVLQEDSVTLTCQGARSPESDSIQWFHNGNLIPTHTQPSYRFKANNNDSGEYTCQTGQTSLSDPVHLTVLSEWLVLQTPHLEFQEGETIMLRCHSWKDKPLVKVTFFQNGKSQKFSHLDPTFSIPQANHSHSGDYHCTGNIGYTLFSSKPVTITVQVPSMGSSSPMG
Sequence of human FcγRIIa(R) (human) (P12318 other isoform, or with tags, fused parts or gaps limits assumed): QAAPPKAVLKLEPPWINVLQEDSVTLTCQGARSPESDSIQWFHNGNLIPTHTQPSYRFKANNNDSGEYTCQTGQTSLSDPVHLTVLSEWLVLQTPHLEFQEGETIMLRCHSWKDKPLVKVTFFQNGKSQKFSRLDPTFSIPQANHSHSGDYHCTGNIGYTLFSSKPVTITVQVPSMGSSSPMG
Sequence of human FcγRIIIa(F) (human) (P08637 other isoform, or with tags, fused parts or gaps limits assumed): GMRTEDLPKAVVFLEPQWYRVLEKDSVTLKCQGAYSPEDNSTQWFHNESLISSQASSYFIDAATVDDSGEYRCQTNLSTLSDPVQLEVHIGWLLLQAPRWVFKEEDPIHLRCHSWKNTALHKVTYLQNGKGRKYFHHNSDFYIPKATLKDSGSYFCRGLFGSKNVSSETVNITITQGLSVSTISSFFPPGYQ
Sequence of FcγRIIb (human) (P31994 43-217 limits assumed): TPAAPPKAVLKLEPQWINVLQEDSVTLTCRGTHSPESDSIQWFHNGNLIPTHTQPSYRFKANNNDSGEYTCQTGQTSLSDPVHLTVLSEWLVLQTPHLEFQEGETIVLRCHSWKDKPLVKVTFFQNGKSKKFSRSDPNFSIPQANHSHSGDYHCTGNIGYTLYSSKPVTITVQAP

| relative binding activity (% of GpH7-B3/GpL16-k0) [1] | Substance | other results |
| --- | --- | --- |
| -1 | GpH7-B3 Y300P/GpL16-k0 (antibody) |  |
| 71 | GpH7-B3 S298Y/GpL16-k0 (antibody) |  |
| 20 | GpH7-B3 S298R/GpL16-k0 (antibody) |  |
| 25 | GpH7-B3 S298K/GpL16-k0 (antibody) |  |

The next lines start with the substance.

| Substance | relative binding activity (% of GpH7-B3/GpL16-k0) [1] | other results |
| --- | --- | --- |
| GpH7-B3 variant L234G/GpL16-k0 (antibody) |  | relative binding activity (% of GpH7-B3/GpL16-k0) (human FcγRIIa(R) (human)): 9 |
| GpH7-B3 Q295Y/GpL16-k0 (antibody) | 49 |  |
| GpH7-B3 S298G/GpL16-k0 (antibody) | 59 |  |
| GpH7-B3 variant V266F/GpL16-k0 (antibody) |  | relative binding activity (% of GpH7-B3/GpL16-k0) (human FcγRIIa(H) (human)): 8 |
| GpH7-B3 variant G236K/GpL16-k0 (antibody) |  | relative binding activity (% of GpH7-B3/GpL16-k0) (human FcγRIIa(R) (human)): 9 |
| GpH7-B3 Y300R/GpL16-k0 (antibody) | 12 |  |
| GpH7-B3 S298P/GpL16-k0 (antibody) | 0 |  |
| GpH7-B3 variant S239W/GpL16-k0 (antibody) |  | relative binding activity (% of GpH7-B3/GpL16-k0) (human FcγRIIa(H) (human)): 9 |
| GpH7-B3 S324P/GpL16-k0 (antibody) | 35 |  |
| GpH7-B3 Q295W/GpL16-k0 (antibody) | 10 |  |
| GpH7-B3 variant S239R/GpL16-k0 (antibody) |  | relative binding activity (% of GpH7-B3/GpL16-k0) (human FcγRIIa(R) (human)): 8 |
| GpH7-B3 S298W/GpL16-k0 (antibody) | 11 | relative binding activity (% of GpH7-B3/GpL16-k0) (FcγRIIb (human) [2]): 9 |
| GpH7-B3 Y296R/GpL16-k0 (antibody) | 38 |  |
| GpH7-B3 variant G237A/GpL16-k0 (antibody) |  | relative binding activity (% of GpH7-B3/GpL16-k0) (human FcγRIIa(H) (human)): 9 |
| GpH7-B3 Y300K/GpL16-k0 (antibody) | 35 |  |
| GpH7-B3 S324K/GpL16-k0 (antibody) | 74 |  |
| GpH7-B3 Y296K/GpL16-k0 (antibody) | 21 |  |
| GpH7-B3 variant E269I/GpL16-k0 (antibody) |  | relative binding activity (% of GpH7-B3/GpL16-k0) (FcγRIIb (human) [3]): 9 |
| GpH7-B3 Y296P/GpL16-k0 (antibody) | 8 |  |
| GpH7-B3 Y296G/GpL16-k0 (antibody) | 21 |  |
| GpH7-B3 variant E269H/GpL16-k0 (antibody) |  | relative binding activity (% of GpH7-B3/GpL16-k0) (FcγRIIb (human) [3]): 8 |
| GpH7-B3 variant G237P/GpL16-k0 (antibody) |  | relative binding activity (% of GpH7-B3/GpL16-k0) (human FcγRIIa(R) (human)): 8 |
| GpH7-B3 variant E269W/GpL16-k0 (antibody) |  | relative binding activity (% of GpH7-B3/GpL16-k0) [4]: 9 |
